Laboratory results published in the supplement of paper PMC9732359.
± gives the uncertainty stated by the source.

Assay: protein stability index of a GFP-peptide fusion (yeast GPS) (PSI 1-4); higher = more stable; sorted into four equal gates, so the index is relative within each strain
Summary of the method: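 Tiled 17-residue peptides from yeast proteins were fused downstream of GFP on a plasmid that also expresses Cherry, and the pooled library was carried in yeast. Mid-log cultures grown in leucine-free medium were sorted into four equal gates by GFP/Cherry fluorescence ratio. Plasmids from each gate were PCR-amplified and Illumina-sequenced, and reads were assigned to strains by barcodes. Each peptide's protein stability index is the sum, over gates, of the gate's read frequency multiplied by its gate number.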

FLSKPSKALYPDYYMII [SNF2]
protein stability index (doa10∆): 2.31 ± 0.037 | protein stability index (pdr5∆): 2.4 ± 0.045 | protein stability index (san1∆): 2.19 ± 0.047 | protein stability index (ubr1∆): 2.54 ± 0.035

VGDEFKGYVFKISGGND [RPS6A]
protein stability index (doa10∆): 3.08 ± 0.28 | protein stability index (pdr5∆): 3.49 ± 0.13 | protein stability index (san1∆): 3.06 ± 0.15 | protein stability index (ubr1∆): 3.58 ± 0.13

FTIVSLVQLKKFSDLKF [YML103C/NUP188]
protein stability index (doa10∆): 2.37 ± 0.17 | protein stability index (pdr5∆): 2.5 ± 0.097 | protein stability index (san1∆): 2.7 ± 0.1 | protein stability index (ubr1∆): 2.06 ± 0.073

SMMSDGIEHFDIPPPAI [RPO31]
protein stability index (doa10∆): 1.97 ± 0.16 | protein stability index (pdr5∆): 1.81 ± 0.13 | protein stability index (san1∆): 1.92 ± 0.17 | protein stability index (ubr1∆): 2.06 ± 0.15

EVVQTGAKNIEITVVKP [PRE6]
protein stability index (doa10∆): 3.24 ± 0.098 | protein stability index (pdr5∆): 3.3 ± 0.093 | protein stability index (san1∆): 3.08 ± 0.052 | protein stability index (ubr1∆): 3.04 ± 0.087

VASSTNFTSPTAVVNNA [SWI1]
protein stability index (doa10∆): 2.64 ± 0.094 | protein stability index (pdr5∆): 2.56 ± 0.12 | protein stability index (san1∆): 2.48 ± 0.14 | protein stability index (ubr1∆): 2.91 ± 0.069

RYVYAHFPINVNIVEKD [RPL9A]
protein stability index (doa10∆): 2.04 ± 0.048 | protein stability index (pdr5∆): 2.17 ± 0.049 | protein stability index (san1∆): 2.06 ± 0.062 | protein stability index (ubr1∆): 2.19 ± 0.043

ELMRIISRNGDTSYKID [SMC1]
protein stability index (doa10∆): 2.83 ± 0.087 | protein stability index (pdr5∆): 3.08 ± 0.063 | protein stability index (san1∆): 2.99 ± 0.072 | protein stability index (ubr1∆): 2.95 ± 0.058

MINGVYYNEISRDLDIS [POP6]
protein stability index (doa10∆): 2.09 ± 0.26 | protein stability index (pdr5∆): 1.21 ± 0.14 | protein stability index (ubr1∆): 1.76 ± 0.12

FQIPTNLDAAAAGTSQA [RPC10]
protein stability index (doa10∆): 2.44 ± 0.14 | protein stability index (pdr5∆): 2.83 ± 0.09 | protein stability index (san1∆): 2.65 ± 0.095 | protein stability index (ubr1∆): 2.66 ± 0.085

TNVSKQNDFLFSVGESL [ECM29]
protein stability index (doa10∆): 2.56 ± 0.055 | protein stability index (pdr5∆): 2.92 ± 0.071 | protein stability index (san1∆): 2.94 ± 0.1 | protein stability index (ubr1∆): 2.46 ± 0.053

RDVMCTDGVIGSRTTTN [RPO31]
protein stability index (doa10∆): 3.2 ± 0.11 | protein stability index (pdr5∆): 3.48 ± 0.084 | protein stability index (san1∆): 3.16 ± 0.084 | protein stability index (ubr1∆): 3.16 ± 0.052

LTQGINGKEVPLAKIYL [MED1]
protein stability index (doa10∆): 2.52 ± 0.26 | protein stability index (pdr5∆): 2.95 ± 0.17 | protein stability index (san1∆): 2.32 ± 0.2 | protein stability index (ubr1∆): 2.21 ± 0.23

TGANSIYSVEKKISRLP [UBP6]
protein stability index (doa10∆): 3 ± 0.08 | protein stability index (pdr5∆): 3.52 ± 0.11 | protein stability index (san1∆): 3.07 ± 0.059 | protein stability index (ubr1∆): 3.26 ± 0.037

SIVLDSEHFDVNDNPDI [DIS3]
protein stability index (doa10∆): 2.96 ± 0.053 | protein stability index (pdr5∆): 3.11 ± 0.053 | protein stability index (san1∆): 2.74 ± 0.093 | protein stability index (ubr1∆): 3.1 ± 0.046

NNLSNQLETLTGSIRHR [CSE2]
protein stability index (doa10∆): 3.06 ± 0.096 | protein stability index (pdr5∆): 2.98 ± 0.06 | protein stability index (san1∆): 3.04 ± 0.049 | protein stability index (ubr1∆): 3.13 ± 0.059

SLIENKKAKLVLIANDV [RPL8B]
protein stability index (doa10∆): 2.32 ± 0.13 | protein stability index (pdr5∆): 3.23 ± 0.17 | protein stability index (san1∆): 2.99 ± 0.12 | protein stability index (ubr1∆): 2.35 ± 0.14

EITQQEKGLNELSIRDV [SMC4]
protein stability index (doa10∆): 1.75 ± 0.11 | protein stability index (pdr5∆): 2.64 ± 0.076 | protein stability index (san1∆): 2.74 ± 0.089 | protein stability index (ubr1∆): 1.85 ± 0.087

LATGPNLTSEIEDLRAD [YOR098C/NUP1]
protein stability index (doa10∆): 3.42 ± 0.11 | protein stability index (pdr5∆): 3.25 ± 0.11 | protein stability index (san1∆): 3.12 ± 0.06 | protein stability index (ubr1∆): 3.25 ± 0.082

VISSGPLAAGNFVSEKG [RPC53]
protein stability index (doa10∆): 2.81 ± 0.093 | protein stability index (pdr5∆): 3.13 ± 0.11 | protein stability index (san1∆): 3.14 ± 0.094 | protein stability index (ubr1∆): 2.48 ± 0.078

DHVDGSSEFVSQDTKVI [RRP46]
protein stability index (doa10∆): 2.64 ± 0.056 | protein stability index (pdr5∆): 2.24 ± 0.053 | protein stability index (san1∆): 2.44 ± 0.053 | protein stability index (ubr1∆): 2.8 ± 0.053

WNLEKWREIIEKVRDYE [IRR1]
protein stability index (doa10∆): 3.06 ± 0.12 | protein stability index (pdr5∆): 3.41 ± 0.15 | protein stability index (san1∆): 3.3 ± 0.054 | protein stability index (ubr1∆): 3.19 ± 0.066

TNEEVRNMAEEFEYDDE [CYT1]
protein stability index (doa10∆): 2.92 ± 0.14 | protein stability index (pdr5∆): 2.3 ± 0.077 | protein stability index (san1∆): 2.49 ± 0.098 | protein stability index (ubr1∆): 2.2 ± 0.041

SNQAVGQTWNFPEVFQV [SRB8]
protein stability index (doa10∆): 3.11 ± 0.21 | protein stability index (pdr5∆): 3.36 ± 0.2 | protein stability index (san1∆): 3.11 ± 0.14

KFFHNGMIYNKLFVSKE [FAS2]
protein stability index (doa10∆): 2.87 ± 0.089 | protein stability index (pdr5∆): 2.54 ± 0.086 | protein stability index (san1∆): 2.38 ± 0.12 | protein stability index (ubr1∆): 2.58 ± 0.077

KGTEASNDIIDKPYLLR [YDL116W/NUP84]
protein stability index (doa10∆): 3.33 ± 0.09 | protein stability index (pdr5∆): 3.23 ± 0.078 | protein stability index (san1∆): 3.34 ± 0.1 | protein stability index (ubr1∆): 2.76 ± 0.11

PLKIHRTPYLTSLKKIK [SWI1]
protein stability index (doa10∆): 1.81 ± 0.054 | protein stability index (pdr5∆): 1.82 ± 0.043 | protein stability index (san1∆): 1.75 ± 0.07 | protein stability index (ubr1∆): 1.79 ± 0.039

QVVVDAITNTGPREDTT [RPS5]
protein stability index (doa10∆): 2.95 ± 0.064 | protein stability index (pdr5∆): 2.95 ± 0.058 | protein stability index (san1∆): 2.82 ± 0.064 | protein stability index (ubr1∆): 2.73 ± 0.042

DQEIVIQQLHSVLNPFL [ISW2]
protein stability index (doa10∆): 2.3 ± 0.042 | protein stability index (pdr5∆): 2.09 ± 0.042 | protein stability index (san1∆): 1.98 ± 0.056 | protein stability index (ubr1∆): 2.26 ± 0.032

DGRVNRFYELEESLTVL [YJR042W/NUP85]
protein stability index (doa10∆): 2.28 ± 0.12 | protein stability index (pdr5∆): 2.21 ± 0.13 | protein stability index (ubr1∆): 1.99 ± 0.1

KKVSRRNARAARAAKIA [RPL13B]
protein stability index (doa10∆): 3.05 ± 0.084 | protein stability index (pdr5∆): 2.65 ± 0.11 | protein stability index (san1∆): 2.63 ± 0.18 | protein stability index (ubr1∆): 2.69 ± 0.045

SLQSCSVAVHFQYVIDE [SMC4]
protein stability index (doa10∆): 1.82 ± 0.082 | protein stability index (pdr5∆): 1.3 ± 0.039 | protein stability index (san1∆): 1.47 ± 0.084 | protein stability index (ubr1∆): 1.54 ± 0.048

NESSLALEFVSLLLSSV [SRB4]
protein stability index (doa10∆): 1.18 ± 0.045 | protein stability index (pdr5∆): 1.33 ± 0.048 | protein stability index (san1∆): 1.53 ± 0.09 | protein stability index (ubr1∆): 1.6 ± 0.05

ESSYTEVTKLLKNEGID [SMC4]
protein stability index (doa10∆): 3.1 ± 0.082 | protein stability index (pdr5∆): 3.17 ± 0.15 | protein stability index (ubr1∆): 3.49 ± 0.098

KIYNFGELLHHPIMETI [RPN9]
protein stability index (doa10∆): 2.58 ± 0.068 | protein stability index (pdr5∆): 2.6 ± 0.074 | protein stability index (san1∆): 1.84 ± 0.11 | protein stability index (ubr1∆): 2.91 ± 0.11

IGTNDLFQVESAPKISS [SIR4]
protein stability index (doa10∆): 2.42 ± 0.049 | protein stability index (pdr5∆): 2.9 ± 0.047 | protein stability index (san1∆): 2.63 ± 0.047 | protein stability index (ubr1∆): 2.43 ± 0.035

ACLGNDGILRLYDALEP [YGL100W/SEH1]
protein stability index (doa10∆): 2.21 ± 0.058 | protein stability index (pdr5∆): 2.19 ± 0.048 | protein stability index (san1∆): 1.86 ± 0.065 | protein stability index (ubr1∆): 1.96 ± 0.034

NQQPQQQQQQQQNPKFL [SWI1]
protein stability index (doa10∆): 2.96 ± 0.048 | protein stability index (pdr5∆): 3.02 ± 0.04 | protein stability index (san1∆): 2.989 ± 0.026 | protein stability index (ubr1∆): 2.9 ± 0.029

LAKSKASLTAARTAANS [RPN6]
protein stability index (doa10∆): 2.5 ± 0.18 | protein stability index (pdr5∆): 2.69 ± 0.12 | protein stability index (san1∆): 2.83 ± 0.097 | protein stability index (ubr1∆): 2.7 ± 0.051

STVKVSDLNLTDRQKKL [YLR018C/POM34]
protein stability index (doa10∆): 2.9 ± 0.063 | protein stability index (pdr5∆): 2.75 ± 0.048 | protein stability index (san1∆): 2.79 ± 0.047 | protein stability index (ubr1∆): 2.76 ± 0.037

TETALMNLKKELQGYIE [SRB5]
protein stability index (doa10∆): 3.05 ± 0.097 | protein stability index (pdr5∆): 3.07 ± 0.089 | protein stability index (san1∆): 3.11 ± 0.062 | protein stability index (ubr1∆): 2.94 ± 0.085

VEAIRRSNQYQRGKMHG [NUT2]
protein stability index (doa10∆): 2.85 ± 0.085 | protein stability index (pdr5∆): 2.64 ± 0.076 | protein stability index (san1∆): 2.83 ± 0.11 | protein stability index (ubr1∆): 2.6 ± 0.099

SVLLHHKTMSIVGVLQD [RPT2]
protein stability index (doa10∆): 1.34 ± 0.074 | protein stability index (pdr5∆): 1.51 ± 0.053 | protein stability index (san1∆): 1.37 ± 0.096 | protein stability index (ubr1∆): 1.57 ± 0.042

SKPESSVLQLIVSEDHI [MED1]
protein stability index (doa10∆): 2.14 ± 0.16 | protein stability index (pdr5∆): 2.17 ± 0.079 | protein stability index (san1∆): 2.06 ± 0.14 | protein stability index (ubr1∆): 2.7 ± 0.092

VANSTKAAFIRVNGSEF [RPT3]
protein stability index (doa10∆): 1.92 ± 0.05 | protein stability index (pdr5∆): 1.69 ± 0.044 | protein stability index (san1∆): 1.66 ± 0.082 | protein stability index (ubr1∆): 1.44 ± 0.034

TTSEKQEVTNEAPFLTS [GAL11]
protein stability index (doa10∆): 3.2 ± 0.093 | protein stability index (pdr5∆): 3.35 ± 0.076 | protein stability index (san1∆): 3.14 ± 0.11 | protein stability index (ubr1∆): 3.36 ± 0.067

RPKPVSPPCYIIDHIPG [SNF5]
protein stability index (doa10∆): 1.79 ± 0.098 | protein stability index (pdr5∆): 2.64 ± 0.096 | protein stability index (san1∆): 2.28 ± 0.12 | protein stability index (ubr1∆): 2.25 ± 0.079

DSAKEWPQSKNCEYEDP [RPB3]
protein stability index (doa10∆): 3.6 ± 0.19 | protein stability index (pdr5∆): 3.13 ± 0.13 | protein stability index (san1∆): 3.27 ± 0.14 | protein stability index (ubr1∆): 3.27 ± 0.14

GYTQHGGLRPFGVSFIY [PRE9]
protein stability index (doa10∆): 2.67 ± 0.22 | protein stability index (pdr5∆): 2.03 ± 0.098 | protein stability index (san1∆): 1.84 ± 0.1 | protein stability index (ubr1∆): 1.65 ± 0.064

KDERDTWIHSEIEELKS [SMC3]
protein stability index (doa10∆): 3.16 ± 0.18 | protein stability index (pdr5∆): 3.02 ± 0.097 | protein stability index (san1∆): 2.91 ± 0.25 | protein stability index (ubr1∆): 3.19 ± 0.12

NEKVAVMRNTYNTRKNA [GAL11]
protein stability index (doa10∆): 2.76 ± 0.14 | protein stability index (pdr5∆): 3.14 ± 0.06 | protein stability index (san1∆): 2.18 ± 0.072 | protein stability index (ubr1∆): 2.37 ± 0.09

AGLDKGISINNMMEHWD [RPO31]
protein stability index (doa10∆): 3.04 ± 0.13 | protein stability index (pdr5∆): 3.09 ± 0.091 | protein stability index (san1∆): 3.02 ± 0.086 | protein stability index (ubr1∆): 3.14 ± 0.05
